The values that follow come from the DeepSol protein solubility set.

This series is described as follows: soluble on expression in E. coli; label from the status in PepcDB or PDB records.
Turning to “MSLTMYADLVLHGGSIATLDDKLEQAQAVAIAAGRIIAVGSDAHCLALAGPGTRRIGLGGACVMPGINDSHCHPDGQAVKAGRWDDVSQVATQQALLARIADFHRRMPAGAWYLGFRFDDTHSGGYPARQALEQAAPGRPVFLLRRDAQVGLASAPALAALLASGLATQVPPHCLDAATGLARGRGVFAFTTHIAAADSLDDYLEGFPTLFAEMGRMGITSVHNALTSALAVQAYRALHGAGRLPVRVGMMLNGRDQRLVDETLAAGLRFGAGDDRLYLLGVEYGSDGSTSGRTAAYYQPYVGEEGGDGRPANRGDVNFSAEDLAAKVGRVMAAGLQAAATGNGDRGIDFALDAFEQGLRAHPGAVPPRIEHCCCAPPAIQQRMAALGVIDSSAAGFAYNLGDAYLRNRPSAEMAWMWPHRDMLDRGVLVCAHSDAPVCERNPFLGMWSMVTRKTASGASLGAGQAITPLEAMRCYTANPARAEGQAARKGTLSPGKLADLIVLDRDPCAVDPDEIRHTQVLATLVGGQATYRAAGAPSWADELPMREEGHHHHHH”, the “soluble on expression in E. coli” value is listed as “soluble”.

On to “MGSDKIHHHHHHMWENFLFSVDRKETTMSMRLLARKMLFMRGASWQHPVIRLGLTALDPVDAIIRSATGLRSLPRYSTRVRSNGLSNQFGGGKFARQGRVILHMLQRHCALSPKSRVLEIGCGCGRTAVQLASFLEAEKYVGMDIEMVSLEACRDNPHLKRRGFKFDLIDIQNNEYNPKGRFRADEYRFSYLDGSMDCVFLISVFTHMLPEDVSNYVTEIGRMLDRGGMCLFSTFLIDHGRGGRGLNFAHDGNGFSYYDVRMPEIAVAYPQRFFEDSFGRAGLVLHEVKLGSWRDDGRGSYPEFGQDVLVFKKAA”, for which the “soluble on expression in E. coli” value is given as “not soluble”.

On to “MDYCCVGRNNNDSVPSEGTLLRVKTLMKMANHPRPGDIIQESLDELNVSLREFARAMEIAPSTASRLLTGKAALTPEMAIKLSVVIGSSPQMWLNLQNAWSLAEAEKTVDVSRLRRLVTQ”, for which the “soluble on expression in E. coli” value is recorded as “soluble”.

For “GSHMDYNKRSSVSTVPNAAPIRVGFVGLNAAKGWAIKTHYPAILQLSSQFQITALYSPKIETSIATIQRLKLSNATAFPTLESFASSSTIDMIVIAIQVASHYEVVMPLLEFSKNNPNLKYLFVEWALACSLDQAESIYKAAAERGVQTIISLQGRKSPYILRAKELISQGYIGDINSIEIAGNGGWYGYERPVKSPKYIYEIGNGVDLVTTTFGHTIDILQYMTSSYFSRINAMVFNNIPEQELIDERGNRLGQRVPKTVPDHLLFQGTLLNGNVPVSCSFKGGKPTKKFTKNLVIDIHGTKGDLKLEGDAGFAEISNLVLYYSGTRANDFPLANGQQAPLDPGYDAGKEIMKVYHLRNYNAIVGNIHRLYQSISDFHFNTKKIPELPSQFVMQGFDFEGFPTLMDALILHRLIESVYKSNMMGSTLNVSNISHYSL”, the “soluble on expression in E. coli” value was “soluble”.

Turning to “SLSHGKGTDMLPEIAAAVGFLSSLLRTRGCVSEQRLKVFSGALQEALTEHYKHHWFPEKPSKGSGYRCIRINHKMDPIISRVASQIGLSQPQLHQLLPSELTLWVDPYEVSYRIGEDGSICVLYEEAPLAASCGEG”, the “soluble on expression in E. coli” value is given as “soluble”.

In the case of SSSEGFICPQCMKSLGSADELFKHYEAVHDAGND, the “soluble on expression in E. coli” value is on record as “soluble”.

Take “MKKWKVRSALVALIVLLAGCSSNAQYNSSASGNVGTAWGGDVHSTVQGVSAERAWRDPAEMIVISYSTNVPSGYDRVYSIRINELEYAIRDGNFNSLPITRVYDSSNNEPRYIVHARVGMNYQLYVRNYSRNTNYEIVATVDGLDVLNGKQGSLNNNGYIVNAGDSLAIKGFRKDKHTEAAFQFANVADSYAANSAQGDVRNTGVIGFAAFELQGQAQNALPPCSGQAFPADNNGYAPPPCRK”: the “soluble on expression in E. coli” value is reported as “not soluble”.

For the sequence “MAELIHSTIGRLLEQTADAYPDRDAVVYPDRNIRYTYAQFDSLCRQTAKGLMRMGIGKGDHVAIWASNISEWLAVQFATAKIGAVLVTVNTNYQAHELDYLLKQSDAAALIIMDSYRGTSYPDIVNSLIPELQEAKPGQLKSERYPFLKTLIYIGNKRLSGMYHWDDTEILAKTVTDAELEERMNSLDKDNVINMQYTSGTTGFPKGVMLTHFNVINNAANIAECMALTSQDRMCIPVPFFHCFGCVLGVLACVSVGAAMIPVQEFDPVTVLKTVEKEKCTVLHGVPTMFIAELHHPDFDAYDLSTLRTGIMAGSPCPSEVMKAVIERMGMKDITIAYGQTEASPVITQTRANDSFIRRVETTGRALPHTEVKIVEPGTCQEVQRGMQGELCTRGYHVMKGYYKDKDATRKAINHDGWLFTGDLAVMDEDGYCRITGRLKDMLIRGGENIYPREIEEFLYQHPAVLDVQVVGVPDAKFGEEAAAWIKLKDGKSVSPDELKAYCKGKIARHKIPRYVIFTDDYPMTASGKIQKY”, the “soluble on expression in E. coli” value is given as “not soluble”.

“MTSLQLSIVHRLPQNYRWSAGFAGSKVEPIPQNGPCGDNSLVALKLLSPDGDNAWSVMYKLSQALSDIEVPCSVLECEGEPCLFVNRQDEFAATCRLKNFGVAIAEPFSNYNPFLEHHHHHH”: the “soluble on expression in E. coli” value is “not soluble”.

Consider “MVHTPLNFKFSEKREEWNLRFCRNVGVSIVELVTADASSAYVRGLMAVNGSKVYSILPFISIDAEKAKKAKFPEDRMSGVRGKVIPSVLPEIKGETILDIGCGFGTLTMELAKNNPESQVYGIDLHDSLTGQAEMNAEVLGLPNVEFRTGSAYALPFEKDSIDAVTCFLMLHHLEDIKFALFEIKRVLKKGGSLTAVEPLAHQHHHGPQLSEAEWKELFEEAGFGTETENMEGAVVLRAVKRELEHHHHHH”, for which the “soluble on expression in E. coli” value is reported as “not soluble”.

Regarding “MNITVPKKLLSDQLSLLERIVPSRSANPLYTYLGLYAEEGALILFGTNGEVDLEVRLPAEAQSLPRVLVPAQPFFQLVRSLPGDLVALGLASEPGQGGQLELSSGRFRTRLSLAPAEGYPELLVPEGEDKGAFPLRTRMPSGELVKALTHVRYAASNEEYRAIFRGVQLEFSPQGFRAVASDGYRLALYDLPLPQGFQAKAVVPARSVDEMVRVLKGADGAEADLALGEGVLALALEGGSGVRMALRLMEGEFPDYQRVIPQEFALKVQVEGEALREAVRRVSVLSDRQNHRVDLLLEEGRILLSAEGDYGKGQEEVPAQVEGPGMAVAYNARYLLEALAPVGDRAHLGISGPTSPSLIWGDGEGYRAVVVPLRV”, the “soluble on expression in E. coli” value is recorded as “soluble”.

For “MSLFLSNVILHQLRKNDNDELVVNYRAESLRNDTSTENLVAELHRVFNAKAGKGFGCFKSDSEFQLWLQEMRRGTLPFYEFSQQSAQRLKNELAKYPFADEGILVMAEYQSLATDYLFIGLLPLNQSLKVTEGLDISATDYLDINKMDIVARIDLSSYETDKESKRYLSYIKGRVGRKVADFFLDFLQADIGLDTKQQNQVLMQAVEDFCADAKFEKEEVISYKKQVYEYCNDQIKAGDEVRVQELSGELPPSNEGVNFFDFTREQGYQLEESFPADRSTVRKLTKYVGAGGGLNLSFDSLLLGERVFYDPETDTLTIKGTPPNLEHHHHHH”, the “soluble on expression in E. coli” value was “not soluble”.

Turning to “MPATAYERVVYKSPSEYHYMKVCLEFQEHGVGLNVAQFKQLLVSALRDLFGEVGAALPVDVLTYDEKTLSAILRICSSGLVKLWSSLTLFGAYKSKKCAFRVIQVSPFLLALSGNSREQVLD”, the “soluble on expression in E. coli” value is reported as “not soluble”.

In the case of “MTVEQNEFLSSVQLQILAEQAIKQYPNEYQGSVKLLCQSENATFLVTTAQAKYALRIHRPNYHHLQDIESELAWLDALNQSGIEVPLAIADQDGQRVITLKLAEGISRYAVLFNWVNGSMPTTDVDPTAFQQLGQITAALHQHSKSWKRPEQFNRIVWNHDTMVGAQGHWGNWKHAPHLDQADHAVVEEAIARISTELCQYGAGEDRYGLIHADLRLTNLLLQDQQIGVIDFDDCGMSWFMHDLAAAISFNEHLDAAPQWVEHWLTGYEKTGHVQNHDYVMIPTFIMQRRIQMMAWNGSHAHTEMALSLGDQWSNETVRLCKKYLNGEMPVGRSNA”, the “soluble on expression in E. coli” value is recorded as “not soluble”.

As for “MSLNTIIQKAKETHELSRDEIIALLKDDSINEELFKAADEVRKKYLGDEVHLRGLIEFTNICKRNCMYCGLRRDNKNLNRYRLSHEEIIDFAKKAVGYGYKTLVLQGGEDDYYTVERLVPIVKDLKALGVALTLSIGERPFEEYEALKKAGADRFLLRIETTDRELYEELDPGMSHENRIQCLKNLRKLGYEVGSGCLVGLPGQKIESLADDILFFKELDVDMNGIGPFIPNEDTPLKDAEGGQFELALKVMAIVRLLLPDINIPATTAMETLNKQGRVIALQCGANVVMPNVTEGEYRKLYALYPGKICTGDTPAHCRGCISGKIRGIGRIVSDGPGFRANGFKPKTEGHHHHHH”, the “soluble on expression in E. coli” value is “soluble”.
